Test: yeast display, Sf9 membrane polyspecificity reagent, FACS + sequencing; frameworks hold sequencing errors
Procedure, shortened: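 A synthetic nanobody library was expressed on Saccharomyces cerevisiae BJ5465 by galactose induction for 36–48 hours. The library was stained for 1 hour at 4 °C with 10% biotinylated, detergent-solubilized Sf9 membrane reagent and enriched with streptavidin microbeads before FACS. Low and high (top ~1%) gates were set on anti-HA fluorescence for expression and streptavidin fluorescence for reagent binding, and each polyreactivity label reflects the gate of origin.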

Row | Sequence | polyreactivity (PSR sort gate)
1 | QVQLVESGGGLVQAGGSLRLSCAASGNIFGYNAMGWYRQAPGKERELVAAITSDGRTYYADSVKGRFTISRDNAKNTVYLQMNSLKPEDTAVYYCAADSSGYYWFNYWGQGTQVTVSS | low polyreactivity
2 | QVQLQESGGGLVQAGGSLRLSCAASGTIFRFRYMGWHRQAPGKERELVAGINGGTTTYYADSVIGRFTISRDNAKNTVYLHMNCLKPDDTAVYNCAAGASRLTYYDYWGQGTQVTVSS | low polyreactivity
3 | QVQLVESGGGLVQAGGSLRLSCAASGYTFYDNAMGWYRQAPGKEREFVASITWSGGSTYYADSVKGRVTISRDNAKNTVYLQMNSLKPEDTAVYYCAAESWFKYDYWGQGTQVTVSS | low polyreactivity
4 | QVQLVESGGGLVQAGGSLRLSCAPSGSTFYRYSMGWYRHAPGKERELVAAINGGDITNYADSVKGRFTISRDNAKNTVYLQMNSLKPEDTAVYYCAARYTYWGLLRYDYWGQGTQVTVSS | high polyreactivity
5 | QVQLVESGGGLVQAGGSLRLSCAASGFTFHRNAMGWYRQAPGKERELVAAITLNGGSSTYYADSVKGRFTISRDNAKNTVYLQMNSLKPEDTAVYYCARDSYSYTFSKNSDPAEYDYWGQGTQVTVSS | low polyreactivity
6 | QVQLVESGGGLVQAGGSLRLSCAASGSIFYRNAMGWYRQAPGKERELVAGITWRGGRTYYADSVKGRFTISRDNAKNTVYLQMNSLKPEDTAVYYCAATYYWYGHPSRRYDYWGQGTQVTVSS | high polyreactivity
7 | QVQLVESGGGLVQAGGSLRLSCAASGRIFRTYAMGWYRQAPGKERELVAAITWSGGSTYYADSVKGRFTISRDNAKNTVYLQMNSLKPEDTAVYYCNALTPGYRIYDYWGQGTQVTVSS | high polyreactivity
8 | QVQLVESGGGLVQAGGSLRLSCAASGSIFDSYDRGWYREAPGKERELVAAITSGGSTNYADSVKGRFTISRDNAKNTVYLQMNSLKPEDTAVYYCAAYYWYPVYYGYDYGGQGTQVTVSS | low polyreactivity
9 | QVQLEESGGGLVQAGGSLRLSCAASGFTLPLYAMGWYIQAPGKERELVAAISSGGGRTYYADSVKGRFTISPDYEKNSVYLQMNSLKPEDTAVYYCNVDRWWLGRYKFYYWGQGTQVTVSS | high polyreactivity
10 | QVQLVESGGGLVQAGGSLRLSCAASGFIFGYNAMGWYRQAPGKERELVAAMDWSGTSTYYADSVKGRFTISRDNAKNTVYLQMNSLKPEDTAVYYCAKVSRRGIVGYWGQGTQVTVSS | high polyreactivity
11 | QVQLVESGGGLVQAGGSLRLSCAASGFIFRYYAMGWYRQAPGKERELVAAITNSGVSTYYADSVKGRFTISRDNAKNTVYLQMNSLKPEDTAVYYCAATYRTRTSQYDYWGQGTQVTVSS | high polyreactivity
12 | QVQLVESGGCLVQAGGTLRLSCDASGITFSRNTMGWYRQAPGKERELVAAITLRGGGRTYYADSVKGRFTISRDNAKNTDYLQLNSLNPEDTAVYYCARVYSSEKAYGYWGQGTQVTVSS | high polyreactivity
13 | QVQLVESGGGLVQAGGSLRLSCAASGRIFGYYAMGWSRPAPGKERELVATITFGGVSTYYADSVKGRFTISRDNAKNNVYLQMNSLKPEDTGVYYCAADSGYLGIYGDEYSWGQGTQVTVSS | low polyreactivity
14 | QDQLVESGGGLVRAGGSLRLSCAASGSIFVVNAMGLYRQAPGKERELVADINSGGSTNFADSVKGRFTISRDNAKNTVYLQMNSLKPEDTAVYYCAKSAVTGTYDYWGQGTLVTVSS | low polyreactivity
15 | QVQLVESGGGLVQAGGSLRLSCAASGRIFTIYAMGWYRQAPGKERELVAAISDRGTRTYYADSVKGRFTISRDNAKNTVYLQMNSLKPEDTAVYYCATDALYTYGYYYWGQGTQVTVSS | low polyreactivity
16 | QVQLVESGGGLVQAGGSLRLSCAASGSIFGFNAMGWYRQAPGKERELVASISSSGDSTYYADSVKGRFTISRDNAKNTVYLLMNSLKPEDTAVYYCATEGRTDYNREMEYWGQGTQVTVSS | low polyreactivity
17 | QVQLVESGGGLVQAGGILRLSCAASGNIFPINAMGWYRQAPGKEREFVAAITRSGSRTYYADSVKGRFTISRDNAKNTVYLQMNSLKKEDTAVYYCADRGNSTPVYSRYGYWGQGTQVTVSS | low polyreactivity
18 | QVQLVETGGGLVQAGGILRLSCAASGRIFVVYAMGWYRQAPGKERELVASNSRGGRTYYADSVKGRFTISRDNEKNTVYLQMNILKTEDTAVYYCAVVVFLKNRDLFDYWGQGTQVTVSS | low polyreactivity
19 | QVQLVESGGGLVQAGGSLRLSCAASGFIITGNAMGWYRKAPGKERELVAAITSGGNTYYADSVKGRFTISRDNAKNTVYLQMNSLKPEDTAVYYCAKYVPHWRILMEYWGQGTQVTVSS | low polyreactivity
20 | QVQLVESGGGLVQAGGSLRLSCAASGFTFGWYAMGRYRQAPGKERELVAAISRGGSTYYADSVKGRFTISRDNAKNTVYLQMNSLKPEDTAVYYCNAAGLPTQLYYWGQGTQVTVSS | high polyreactivity
21 | QVQLVESGGGLVQAGGSLRLSCAASGGTFYRNAMGWYRQAPGKERELVASISRTGGSTYYADSVKGRFTISRDIAKNTVYLQMNSLKPEDTAVYYCAKKQPRYSYFDNDYWGQGTQVTVSS | high polyreactivity
22 | QVQLVESGGGLVQAGGSLRLSCAASGFTFIRYAMGWYRQAPGKARELVAAIRGTGTSTYYADSVKGRFTISRDNAKNTVYLQMNSLKPEDTAVYYCNKVAGRSPYTRYDYWGQGTQVTVSS | low polyreactivity

Row | Sequence | polyreactivity (PSR sort gate)
23 | QVQLVESGGGLVQAGGSLRLSCAASGSTFSLYDMGWYRQAPGKERELVAAISSSGGGTYYADSVKGRFTISRDNAKKTVYLQMNSLKPEDTAVYYCAARFYYYPTKYDSWGQGTQVTVSS | high polyreactivity
24 | QVQLVESGGGIVQAGGSLRLSCAASGRIFFGYAMGWYRQAPGKERELVAAITSGGSTYYADSVKGRFTISRDNAKNTDYLQMYSLKTEDTAVYYCAAVRWYGSKRYGYWGQGTQVTVSS | high polyreactivity
25 | QVQLVESGGGLVQAGGSLRLSCAASGSTFKPYTMGWYRPAPGKERELVAAISSVDSTYYADSVKGRFTISRDNAKKTVYLQMNSLKPEDTAVYDCNKRKSPTFTYAMNYWGQGTQGTVSS | low polyreactivity
26 | QVQLQESGGGLVQVGGSQRLSCAASGNIFYNYAMGRYRHAQGKEHEFDATINHGTSINYADSVKGRFTISRDNAKNTVYLQMNSLKPEDTAVYYCAADLSWTDNLFYWGQGTQVTVSS | low polyreactivity
27 | QVQLVESGGGLVQSGGSLRLSCAASVIIFAWYAMGWYRQAPGKERELVAAITANSDSTYYADSVKGRFTISRDNAKNTVYLQMNSLKPEDTAVYDCAKRTYSRKFRGAYNYWGQGTQVTVSS | high polyreactivity
28 | QVQLVESGGGLVQAGGSLRLICAASGRNFNHYAMGWYRQAPGKERELVAGITISCGSTYYADSVKGRFTISRDNSKNTVSLQINSLKPEVTAVYYCNAVYDYYRQSKWSMDYWGQGTQVTVSS | low polyreactivity
29 | QVQLVESGGGLVQAGGSLRLSCADSGRTSRVYAMGWYRQEPAKERELVAAITWRGGNTYYADSVKGRFTISRDNAKNTVYLQMNSLKPEDTAVYYCAADPLSYGSWHGDSWGQGTQVTLSS | high polyreactivity
30 | QVQLVESGGGLVQAGGSLRLSCAASGIIFRSYAMGWYRQAPGKERELVAGITRVGSTYYADSVKGRFTISRDNAKNTVYLQMHSLKPEDTAVYYCNAYNYWSDDYWGQGTQVTVSS | high polyreactivity
31 | QVQLVESGGGLVQAGGSLRISCAASGSIFGYYAMGWYRQAPGKERELVAVITWNTGNTYYADSVKGRFTISRDNAKNTVYLQMNSLKPEDNAVYYCAADQTGWGDTYDYWGQGTQVTVSS | low polyreactivity
32 | QVQLVESGGGLVQAGGSLRLSCAASGRTFRLYAMGWYRQATGTETELVAAISSRGGSTYYADSVKGRFTISRDNAKNTVYLQMNSLKPEDTAVYYCAKGLGSGQEIYGYDYWGQGTQVTVSS | high polyreactivity
33 | QVQLVESGGGLDQAGGSLRLSCAASGNTLNYYTMGWYRQAPGKEREFVAAISWRGSRTYYADSVKGRFTISRDNAKNTVYLQMNRLKQEDTAVYYCATARYGYYGWTPYGDYIFDYWGQGTQVTVSS | high polyreactivity
34 | QVQLVESGGGLVQAGGSLRLSCAASGSIFRYYAMGWYRQAPGKERELVASIRRGDSTYYADSVKGRFTISRDNAKNTVYLQMNSLKPEDTAVYYCAARFFWPQRGGYWGQGTQVTVSS | high polyreactivity
35 | QVQLVESGGGLVQAGGTLRLSCAASGSIFRRKVMVWYRQAPGKERELVAAMSWSGDRTYYADSVKGRFTISRDNAKNTVYLQMNSLKPEDTAVYYCAAANASPRRYGQYDDWGQGTQVTVSS | high polyreactivity
36 | QVQLVESGGGLVQAGGSLRLSCAASGRTFYSNAMGWYRQAPGKERELVAAISYRGGRTYYADSVKGRFTISRDNAKNTVYLQMNSLKPEDTAVYYSAADAYVLFYGDWYECDYWGQGTQVTVSS | high polyreactivity
37 | QVQLVESGGRLVQAGGSLRLSCAASGRTIVIYAMGWYRQAPGKEREFVAAISRSGGSTYYADSVKGRFTISRDNAKNTVYLQMNSLKPEDTAVYYCYTRTPYWFKSDYWGQGTQVTVSS | low polyreactivity
38 | QVQLVESGGGLVQAGGSLRLSCAASGFTFSYYAMGWYRQAPGKERELVASISRSGNTYYADSVKGRFTISRDNAKNTVYLQMNSLKPEDTAVYYCAADQVYASTHVWGYDYWGQGTQVTVSS | high polyreactivity
39 | QGQLVESGGGLVQAGGSLRLSCAASGRIFYTNAMGGYRQARGKERELVAGINYSGGNTYADSVKGRFTISRDNAKNTVYLQMNSLKPEDTAVYYCAARGWSHYGYGDNYRHGYWGQGTQVTVSS | high polyreactivity
40 | QVQLVESGGGLVQAGGSLRLSCAASGSTFRINAMGWYRQAPGKERELVAAITRGGSTNYADSVKGRFTISRDNAKNTVYLQMNSLKPEDTAVYYCAAGLYSWSGYASYNSAYGYWGQGTQVTVSS | low polyreactivity
41 | QVQHVESGGGLVQAGGSLRLSCAASGSTSDTNVMGWYRQDPGKERELVAAISYDDDRTYYADSVKGRFTISSDNAKNTVYLQMNSLKPEDTAVYYCATADDYPGDDYLEGGYWGQGTQVTVSS | low polyreactivity
42 | QVQLVESGGGLVQAGGSLRLSCAASGFIFSGYAMGWYRQAPGKEREFVAAISWSGSSTYYADSVKGRFTISRDNAKNTVYLQMNSLKPEDTALYYCNAVRQHPPRYSRYDYWGQGTQVTVSS | high polyreactivity
43 | QVQLVESGGGLVQAGGSLRLSCAASGSISKGYAMGWYRQAPGKERELVARISGDGGSTYYADSVKGRFTISRDNAKNTVYLQMNSLKPEDTAVYYCNTRQQFTLTRGVFLHNYWGQGTQVTVSS | high polyreactivity
